Results published in US5591427A, “Human Interleukin-3(Il-3) variants and their use to promote or antagonize IL-3-mediated processes” (Medvet Science Pty. Ltd., priority 1979, dated 1997).
Where a chain is given by its changes, count along the chain named.

T1: IL-3 receptor (Homo sapiens, UniProt P26951+P32927)
T1 sequence (P26951 19-378): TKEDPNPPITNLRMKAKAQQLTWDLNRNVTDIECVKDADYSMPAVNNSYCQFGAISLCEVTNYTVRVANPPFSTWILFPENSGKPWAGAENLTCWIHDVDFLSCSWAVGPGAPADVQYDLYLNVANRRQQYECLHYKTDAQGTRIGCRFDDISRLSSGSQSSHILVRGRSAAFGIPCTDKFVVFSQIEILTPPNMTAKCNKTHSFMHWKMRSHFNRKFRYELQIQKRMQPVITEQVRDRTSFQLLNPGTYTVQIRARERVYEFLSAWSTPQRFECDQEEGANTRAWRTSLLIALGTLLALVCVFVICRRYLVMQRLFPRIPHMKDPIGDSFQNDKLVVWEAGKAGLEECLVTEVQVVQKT
T1 sequence (P32927 17-897): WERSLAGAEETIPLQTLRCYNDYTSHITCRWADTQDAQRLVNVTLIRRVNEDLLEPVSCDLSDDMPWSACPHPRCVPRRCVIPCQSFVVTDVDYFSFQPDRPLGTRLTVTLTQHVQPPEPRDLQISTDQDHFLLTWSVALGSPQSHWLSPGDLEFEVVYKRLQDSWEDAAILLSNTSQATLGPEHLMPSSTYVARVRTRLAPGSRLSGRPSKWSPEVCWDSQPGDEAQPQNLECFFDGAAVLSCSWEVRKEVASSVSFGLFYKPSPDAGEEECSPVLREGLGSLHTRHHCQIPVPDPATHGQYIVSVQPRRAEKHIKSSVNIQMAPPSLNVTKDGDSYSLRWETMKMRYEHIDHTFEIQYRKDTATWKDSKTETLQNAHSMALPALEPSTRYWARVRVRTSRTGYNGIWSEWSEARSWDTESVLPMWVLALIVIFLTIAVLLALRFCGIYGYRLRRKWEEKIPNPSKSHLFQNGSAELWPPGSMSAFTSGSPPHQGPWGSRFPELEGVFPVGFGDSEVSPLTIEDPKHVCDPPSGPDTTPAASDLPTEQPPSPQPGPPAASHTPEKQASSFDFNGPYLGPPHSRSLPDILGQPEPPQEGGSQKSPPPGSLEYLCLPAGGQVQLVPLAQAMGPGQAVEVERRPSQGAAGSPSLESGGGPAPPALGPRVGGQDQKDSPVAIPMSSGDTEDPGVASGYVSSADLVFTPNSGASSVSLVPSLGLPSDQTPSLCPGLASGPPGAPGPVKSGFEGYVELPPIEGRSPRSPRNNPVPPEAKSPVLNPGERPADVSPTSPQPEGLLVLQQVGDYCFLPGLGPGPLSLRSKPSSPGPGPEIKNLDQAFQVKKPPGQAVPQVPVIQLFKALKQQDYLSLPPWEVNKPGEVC

T2: IL-3R α chain and β chain (Homo sapiens, UniProt P26951+P32927)
T2 construct: amplify the complete coding region of the IL-3R alpha chain; also to amplify the coding region of the IL-3R α chain; expressed in transfected cells; host or cells: COS cells (pCDM8 vector, electroporation)
T2 sequence (P26951 19-378): T1 sequence (P26951 19-378)
T2 sequence (P32927 17-897): T1 sequence (P32927 17-897)

T3: IL-3 high affinity receptor of monocytes (Homo sapiens, UniProt P26951+P32927)
T3 construct: endogenous in cells; host or cells: freshly purified human peripheral blood monocytes
T3 sequence (P26951 19-378): T1 sequence (P26951 19-378)
T3 sequence (P32927 17-897): T1 sequence (P32927 17-897)

B1: Gly 33: literature hIL-3 variant in which Pro 33 was substituted with Gly (Lokker et al, 1991a) (protein, UniProt P08700 20-152, looked up, variant P33G)
Interleukin-3: APMTQTTPLKTSWVNCSNMIDEIITHLKQPPLGLLDFNNLNGEDQDILMENNLRRPNLEAFNRAVKSLQNASAIESILKNLLPCLPLATAAPTRHPIHIKDGDWNEFRRKLTFYLKTLENAQAQQTTLSLAIF
B2: M9: human IL-3 mutant, amino acid 116 (Lys) replaced by Val (protein, UniProt P08700 20-152, looked up, variant K116V)
Interleukin-3: B1 Interleukin-3 with G33P, K116V
B3: M6: human IL-3 mutant, amino acid 101 (Asp) replaced by Ala (protein, UniProt P08700 20-152, looked up, variant D101A)
Interleukin-3: B1 Interleukin-3 with G33P, D101A
B4: M47: human IL-3 mutant, glutamic acid at position 22 replaced by arginine (protein, UniProt P08700 20-152, looked up, variant E22R)
Interleukin-3: B1 Interleukin-3 with E22R, G33P
B5: M25: human IL-3 mutant with substitution of residues 21, 22 and 25 (protein, UniProt P08700 20-152, looked up, variant D21A E22L T25A)
Interleukin-3: B1 Interleukin-3 with D21A, E22L, T25A, G33P

Legend:
IL-3 receptor = biological target: T1, IL-3 receptor; details: E. coli expressed variants, literature; cited from earlier work
M-07 cell line = details: E. coli expressed variants, literature; cited from earlier work
basophils = test: Histamine release assay with basophils; format: cell-based, human; details: FIG. 4
Experimental: This was carried out as previously described (Lopez et. al., 1990, J. Cell. Physiol., 145, 69-77). Briefly, basophils were obtained from the peripheral blood of normal individuals after dextran sedimentation and centrifugation over Lymphoprep. The percentage of basophils in these preparations varied between 0.2% and 10%. In 300 μl 2×10^4 cells were incubated with 2 μg/ml of purified human IgE. IgE-sensitisedcells were mixed with a goat IgG antihuman IgE (Cappel 0101-0061) and rhIL-3, in a final volume of 500 μl. After incubation for 60 min at 37° C., the cells were centrifuged and 350 μl aliquots removed and stored at -20° C. before assaying for histamine content. Histamine was assayed using a radioertzymatic method essentially as described (Shaff and Beavan, 1979, Anal. Biochem., 94, 425-430). Briefly, samples of 30 μl were diluted with an equal volume of water and mixed with a 30 μl solution comprising 27.5 μl 0.1 M sodium phosphate, pH 7.9, 1.5 μl rat kidney histamine-N-methyltransferase, and 1.0 μl (0.5 μCi)^3 H-methyl-S-adensoyl-L-methionine (Dupont Net 155, low SA). Tritium-labelled methyl-histamine was extracted into chloroform/ether, dried, and counted by scintillation spectrophotometry. […] as nanograms of histamine per milliliter by extrapolation to a standard curve constructed with 10, 5 and 1 ng/ml of histamine (SIGMA).

monocytes = test: Stimulation of human monocyte adherence (51Cr adhesion assay); format: cell-based; details: for stimulation of monocyte adherence: FIG. 3; for Relative biological activity, MONOCYTE: concentration of IL-3 mutant giving 50% of biological activity compared to that of wild type IL-3
Experimental: (a) Monocyte purification. Monocytes were purified from the peripheral blood of normal donors, obtained from the Adelaide Red Cross Transfusion Service, as previously described (Elliott et. al., 1990, J. Immunol., 145, 167-171). In brief, mononuclear cells were prepared by centrifugation of whole blood on lymphoprep cushions (Nyegaard, Oslo, Norway) and washed twice in HBSS, 0.02% EDTA, 0.1% heat inactivated FCS (Flow Laboratories, North Ryde, Australia) and monocytes were purified in a Beckman J-6M/E elutriator using the Sanderson chamber, a flow rate of 12 ml/min and a constant rotor speed of 2050 rpm. Cells remaining in the chamber after 30 min were collected, washed twice in HBSS, and used immediately. Using these methods, monocyte purity as assessed by morphology and nonspecific-esterase staining was always >90% and usually >95%. The major contaminating cell types were lymphocytes and granulocytes (principally basophils).
(b) Adhesion assay. Adhesion was measured by an isotopic method essentially as described (Elliott et. al., supra). In brief, purified monocytes (0.5 to 1×10^8) were resuspended in 1 ml RPMI 1640 with 0.1% FCS and antibiotics and incubated for 30 min at 37° C. with 500 μCi^51 Cr in the form of sodium chromate (Amersham International., Buckinghamshire, England). Cells were washed thrice in RPMI 1640 and resuspended in culture medium consisting of RPMI 1640, 10% FCS, antibiotics, and 0.2% sodium bicarbonate. For measurement of adhesion, 1 to 2.5×10^5 monocytes were aliquotted per well in 96-well microtitre plates (Nunc, Karnstrup, Denmark) together with stimuli or control medium to a total volume of […], and incubated for the indicated periods. […] At harvest, samples of supernatant were taken to assess spontaneous ^51 Cr release (usually <10% of cell-associated radioactivity), wells were washed three times with RPMI 1640 at 37° C., and residual adherent cells lysed in 10 mM Tris-hydrochloride, and 1% Nonident p40 detergent (Sigma). Lysates were transferred to tubes and counted in a Packard auto-gamma 5650. Percent adherence was calculated according to the formula: [formula]

[1] = tested on: bone marrow progenitor cells; test: Colony assay: clonal proliferation and differentiation of bone marrow progenitor cells in semi-solid agar; format: cell-based; details: for Relative biological activity, PROLIFERATION COLONIES: concentration of IL-3 mutant giving 50% of biological activity compared to that of wild type IL-3, mean ± SD
Experimental: (a) Colony assay: this assay measured the clonal proliferation and differentiation of bone marrow progenitor cells in semi-solid agar and was carried out as described (Lopez et. al., 1985, Blood 72, 1797-1804). Briefly, low density, macrophage-depleted bone marrow cells were cultured at a concentration of 0.5 to 1×10^5 /mL in Iscove's modified Dulbecco's medium (IMDM, GIBCI, Grant Island, N.Y.), containing 0.33% agar (Difco, Detroit), 25% FCS (Commonwealth Serum Laboratories, Parkville, Victoria, Australia), and 20 μmol/LK2-mercaptoethanol. Different dilutions of IL-3- containing COS cell supernatants were added to each plate. Plates were prepared in triplicate and scored after incubation at 37° C. in 5% CO2 in a humid atmosphere for 14 days. Clones containing 40 cells were scored as colonies.

[2] = tested on: chronic myeloid leukaemic (CML) cells; test: Proliferation of chronic myeloid leukaemic (CML) cells, [3H] thymidine incorporation; format: cell-based, human; details: for stimulation of CML cell proliferation: FIG. 2, FIG. 8; for Relative biological activity, PROLIFERATION CML: concentration of IL-3 mutant giving 50% of biological activity compared to that of wild type IL-3
Experimental: (b ) Proliferation of chronic myeloid leukaemic (CML) cells: Primarily CML cells from one patient were selected for their ability to incorporate [^3 H] thymidine in response to IL-3 as described (Lopez el. al., supra ). Briefly, CML cells were placed at 2×10^5 cells/mL fresh medium containing different concentrations of IL-3. Cells were incubated for 24 hours in a flat bottom 96-well NUNCLON plates (2×10^4 cells/well) before being pulsed with [^3 H] thymidine (0.5 μCi/well) for four more hours at 37° C. The cells were then harvested onto glass filters with a Titertek automated cell harvester and counted into a Beckman liquid scintillation counter. Data are expressed in cpm, and each point is the mean of six replicates.

[3] = biological target: T2, IL-3R α chain and β chain; test: Competition for 125I-IL-3 binding to reconstituted IL-3 high affinity receptor (α and β chains) in COS cells; details: FIG. 7
Excerpt: PolyA+ RNA was isolated from the human cord blood cell line KMT2. Oligo dT primed double stranded cDNA was synthesised and used as template for PCR amplification. The PCR primers were designed to amplify the complete coding region of the IL-3R alpha chain and also to amplify the coding region of the […]. The PCR products were cloned into the vector pGEM-2 for sequence verification, and then into the eukaryotic expression vector, pCDM8. The […]-containing plasmid was transfected into COS cells by electroporation, either on its own or in conjunction with the […], and after two days the cells were used for binding studies.

[4] = biological target: T3, IL-3 high affinity receptor of monocytes; test: Competition for 125I-IL-3 binding to the high affinity receptor of monocytes; details: FIG. 5, at the concentrations tested
Experimental: (a) Radioiodination of hIL-3: rh IL-3 (gift from Dr. L. Park, Immunex Corporation, Seattle, Wash.) was radioiodinated by the ICI method as previously described (Contreras et. al., supra). Iodinated protein was separated from free ^125 I by chromatography on a Sephadex G-25 PD 10 column (Pharmacia, Uppsala, Sweden) equilibrated in phosphate-buffered saline (PBS) containing 0.02% Tween 20, and stored at 4° C. for up to 4 weeks. Before use, the iodinated protein was purified from Tween and nonprotein-associated radioactivity by cation exchange chromatography on a 0.3-ml CM-Sepharose CL-6B column (Pharmacia) and stored at 4° C. for up to 5 days.
(b) Competition Binding assay. Freshly purified monocytes were suspended in binding medium consisting of RPMI 1640 supplemented with 20 mmol/L/HEPES and 0.5% bovine serum albumin (BSA). […] Cell suspensions were then overlaid on 0.2 mL FCS at 4° C. and centrifuged for 30 seconds at a maximum speed in a Beckman Microfugre 12. The tip of each tube was cut off above the visible cell pellet and counted in a Packard Auto-Gamma 5650 (Downer's Grove, Ill). The results are expressed as Percent competition where 100% is the competition observed in the presence of 100 fold excess native IL-3.

Molecule	stimulation of monocyte adherence (monocytes)	Relative biological activity, MONOCYTE (monocytes)	Relative biological activity, PROLIFERATION COLONIES [1]	stimulation of CML cell proliferation [2]	Relative biological activity, PROLIFERATION CML [2]	other results
B1	–	–	–	–	–	receptor binding capacity (IL-3 receptor): without a significant modification; proliferation activity, M-07 cells (M-07 cell line): enhanced proliferation activity
B2	more potent than the wild type IL-3	312	420	more potent than the wild type IL-3	328	histamine release from basophils (basophils): increased histamine release; number of day 14 colonies [1]: increase in the number of day 14 colonies
B3	more potent than the wild type IL-3	153 ± 48	104 ± 35	more potent than the wild type IL-3	205	–
B4	–	–	–	–	–	binding to cotransfected α and β chains [3]: less binding
B5	lack of stimulation	–	–	lack of stimulation	–	binding to high affinity IL-3 receptors of monocytes [4]: negative at binding
